Positions count from the first letter of the chain named. Values belong to the binder of their own block, whether it stands above or below them.
How the values were obtained:
[1] = molecular target: T1, human IL-2Rγ (common cytokine receptor γ-chain) (human, UniProt P31785 23-262, limits assumed); assay: PE binding ELISA, periplasmic extract on coated protein
T1 construct: Recombinant protein coated on the plate or immobilised on a CM5 chip; also called hu IL-2R; CD132
T1 sequence: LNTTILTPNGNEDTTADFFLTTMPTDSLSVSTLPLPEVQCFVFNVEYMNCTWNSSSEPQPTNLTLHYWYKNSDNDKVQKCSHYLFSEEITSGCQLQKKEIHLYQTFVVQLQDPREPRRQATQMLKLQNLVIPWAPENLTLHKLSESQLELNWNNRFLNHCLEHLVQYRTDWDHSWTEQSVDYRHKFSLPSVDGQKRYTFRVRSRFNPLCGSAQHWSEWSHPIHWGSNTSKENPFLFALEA
In short: (§1)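 Direct-coat ELISA: receptor protein o/n 4° C → 4% Marvel/PBS block 1 h → P.E. 1:5 in 1% Marvel/PBS, 1 h → OD450 vs neg. controls.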

mouse IL-2Rγ [2] = molecular target: T2, mouse IL-2Rγ (mouse, UniProt P34902 23-263); assay: as above
T2 construct: also called mo IL-2R
T2 sequence (looked up): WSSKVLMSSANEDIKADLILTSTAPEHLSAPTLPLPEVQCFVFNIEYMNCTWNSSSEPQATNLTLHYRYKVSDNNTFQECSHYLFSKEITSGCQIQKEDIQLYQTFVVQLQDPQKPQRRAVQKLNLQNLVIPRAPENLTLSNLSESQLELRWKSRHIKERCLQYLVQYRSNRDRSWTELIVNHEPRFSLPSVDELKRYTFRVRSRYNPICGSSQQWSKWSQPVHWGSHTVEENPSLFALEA
In short: as §1

[3] = molecular target: T1, human IL-2Rγ (common cytokine receptor …); assay: SPR off-rate ranking, periplasmic extract on immobilised protein
In short: (§2)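 Dissociation rates of nanobody (VHH) periplasmic extracts were measured across a 120s window on an amine-coupled carboxymethyl dextran surface bearing about 2500 RUs of receptor; injection flow 30 uL/min.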

mouse IL-2Rγ [4] = molecular target: T2, mouse IL-2Rγ; assay: as above
In short: as §2

B2: FJ1427_P035MP04D03 (VHH)
VHH: EVQLVESGGGLVQAEGSLRLSCAASGRTLSRYAMGWFRQAPGKEREFVTANSWGGDTYYADSVQGRFTFSRDNAKNTVYLQMNSLQPEDTAVYYCAAAPTSFATTAYSSSNSYAYWGQGTQVTVSS
notes: VHH in periplasmic extract; also called clone nr
OD (PE binding ELISA) [1]: 1.66 OD450 nm
OD (PE binding ELISA) (mouse IL-2Rγ [2]): 0.063 OD450 nm
koff [3]: 0.00143 s⁻¹
koff (mouse IL-2Rγ [4]): 0.168 s⁻¹

B3: FJ1427_P035MP04A01 (VHH)
VHH: B2 VHH with E15G
notes: as for B2
OD (PE binding ELISA) [1]: 0.867 OD450 nm
OD (PE binding ELISA) (mouse IL-2Rγ [2]): 0.06 OD450 nm
koff [3]: 0.00156 s⁻¹
koff (mouse IL-2Rγ [4]): 0.132 s⁻¹

B4: 28-MP04D02 (VHH)
VHH: B2 VHH with E1Q, E15G, S109G
notes: VHH in periplasmic extract; also called FJ1427_P035MP04D02; clone nr; 300
OD (PE binding ELISA) [1]: 0.782 OD450 nm
OD (PE binding ELISA) (mouse IL-2Rγ [2]): 0.054 OD450 nm
koff [3]: 0.0088 s⁻¹
koff (mouse IL-2Rγ [4]): 0.319 s⁻¹

B5: FJ1427_P035MP04B05 (VHH)
VHH: B2 VHH with E15G
notes: as for B2
OD (PE binding ELISA) [1]: 1.49 OD450 nm
OD (PE binding ELISA) (mouse IL-2Rγ [2]): 0.063 OD450 nm
koff [3]: 0.00292 s⁻¹
koff (mouse IL-2Rγ [4]): 0.138 s⁻¹

B6: 34-MP04A12 (VHH)
VHH: QVQLVESGGGLVQAGSSLRLSCAASGRTLSRLAMGWFRQAPGKEREFVAVNSWGGDTFYADSVEGRFTYSRDNAKSAVYLQMNSLQPEDTAVYYCAAAPTSFATTAYSSSNSYAYWGQGAQVTVSS
notes: VHH in periplasmic extract; also called FJ1427_P035MP04A12; clone nr
OD (PE binding ELISA) [1]: 1.3 OD450 nm
OD (PE binding ELISA) (mouse IL-2Rγ [2]): 3.6 OD450 nm
koff [3]: 0.000333 s⁻¹
koff (mouse IL-2Rγ [4]): 0.00809 s⁻¹

B7: FJ1427_P035MP04C04 (VHH)
VHH: B2 VHH with E15G
notes: as for B2
OD (PE binding ELISA) [1]: 1.43 OD450 nm
OD (PE binding ELISA) (mouse IL-2Rγ [2]): 0.063 OD450 nm
koff [3]: 0.00214 s⁻¹
koff (mouse IL-2Rγ [4]): 0.151 s⁻¹

B9: FJ1427_P035MP04A06 (VHH)
VHH: B2 VHH with E1Q, A14P, E15G
notes: as for B2
OD (PE binding ELISA) [1]: 0.898 OD450 nm
OD (PE binding ELISA) (mouse IL-2Rγ [2]): 0.063 OD450 nm
koff [3]: 0.00283 s⁻¹
koff (mouse IL-2Rγ [4]): 0.113 s⁻¹

B10: FJ1427_P035MP04C06 (VHH)
VHH: B2 VHH with E15G
notes: as for B2
OD (PE binding ELISA) [1]: 0.797 OD450 nm
OD (PE binding ELISA) (mouse IL-2Rγ [2]): 0.061 OD450 nm
koff [3]: 0.00201 s⁻¹
koff (mouse IL-2Rγ [4]): 0.0465 s⁻¹

B13: FJ1427_P035MP04B08 (VHH)
VHH: B2 VHH with E1Q, E15G, A23V
notes: as for B2
OD (PE binding ELISA) [1]: 1.44 OD450 nm
OD (PE binding ELISA) (mouse IL-2Rγ [2]): 0.075 OD450 nm
koff [3]: 0.00205 s⁻¹
koff (mouse IL-2Rγ [4]): 0.113 s⁻¹

B14: FJ1427_P035MP04D06 (VHH)
VHH: B2 VHH with E1Q, E15G, T28A, Y32L, T49V, N51S, G55D, Y58F, Q64K, E88G
notes: as for B2
OD (PE binding ELISA) [1]: 2.1 OD450 nm
OD (PE binding ELISA) (mouse IL-2Rγ [2]): 0.637 OD450 nm
koff [3]: 0.00145 s⁻¹
koff (mouse IL-2Rγ [4]): 0.0137 s⁻¹

Other lines, results leading:

OD (PE binding ELISA) [1]: 1.77 OD450 nm
OD (PE binding ELISA) (mouse IL-2Rγ [2]): 0.3 OD450 nm
koff [3]: 0.00074 s⁻¹
koff (mouse IL-2Rγ [4]): 0.061 s⁻¹
B1: FJ1427_P035MP04F03 (VHH)
VHH: B6 VHH with S16G, L32N, V50A, N51D, Y69F, S76N, A97G, A114R, A120T
notes: VHH in periplasmic extract; also called clone nr; 310

OD (PE binding ELISA) [1]: 0.789 OD450 nm
OD (PE binding ELISA) (mouse IL-2Rγ [2]): 0.064 OD450 nm
koff [3]: 0.00249 s⁻¹
koff (mouse IL-2Rγ [4]): 0.156 s⁻¹
B8: FJ1427_P035MP04F07 (VHH)
VHH: B2 VHH with E15G
notes: as for B2

OD (PE binding ELISA) [1]: 0.919 OD450 nm
OD (PE binding ELISA) (mouse IL-2Rγ [2]): 0.076 OD450 nm
koff [3]: 0.00154 s⁻¹
koff (mouse IL-2Rγ [4]): 0.101 s⁻¹
B11: FJ1427_P035MP04H07 (VHH)
VHH: B2 VHH with E1Q, V2L, E15G
notes: as for B2

OD (PE binding ELISA) [1]: 0.652 OD450 nm
OD (PE binding ELISA) (mouse IL-2Rγ [2]): 0.07 OD450 nm
koff [3]: 0.00162 s⁻¹
koff (mouse IL-2Rγ [4]): 0.109 s⁻¹
B12: FJ1427_P035MP04E09 (VHH)
VHH: B2 VHH with E1Q, E15G, F67S
notes: as for B2

OD (PE binding ELISA) [1]: 1.67 OD450 nm
OD (PE binding ELISA) (mouse IL-2Rγ [2]): 0.276 OD450 nm
koff [3]: 0.00122 s⁻¹
koff (mouse IL-2Rγ [4]): 0.0666 s⁻¹
B15: FJ1427_P035MP04G04 (VHH)
VHH: B2 VHH with E1Q, E15G, M34V, Y58F, Q86L, T90A, A114K, Y115V
notes: as for B2

OD (PE binding ELISA) [1]: 0.919 OD450 nm
OD (PE binding ELISA) (mouse IL-2Rγ [2]): 0.079 OD450 nm
koff [3]: 0.00189 s⁻¹
koff (mouse IL-2Rγ [4]): 0.215 s⁻¹
B16: FJ1427_P035MP04E07 (VHH)
VHH: B2 VHH with E1Q, E15G, E46D, T49A, N51T, Q64E, T77A
notes: as for B2
